# Assays:
# [1] = target: human BDCA-2 on cells (Jurkat-hBDCA-2 cells; human pDCs; human PBMCs) (human) (UniProt Q8WTT0); test: flow cytometry on Jurkat-hBDCA-2 cells
# [2] = target: cynomolgus monkey BDCA-2 on cells (Jurkat-cynoBDCA-2 cells; cynomolgus monkey pDCs) (cynomolgus monkey); test: flow cytometry on Jurkat-cynoBDCA-2 cells
# Sequence of cynomolgus monkey BDCA-2 on cells (Jurkat-cynoBDCA-2 cells; cynomolgus monkey pDCs) (cynomolgus monkey) (chain, as listed by the source): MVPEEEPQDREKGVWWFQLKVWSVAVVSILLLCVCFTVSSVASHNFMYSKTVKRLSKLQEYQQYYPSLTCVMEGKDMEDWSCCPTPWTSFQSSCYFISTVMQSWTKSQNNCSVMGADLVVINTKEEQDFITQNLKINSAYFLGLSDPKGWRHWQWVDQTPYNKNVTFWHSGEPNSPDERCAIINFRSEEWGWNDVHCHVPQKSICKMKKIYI
# Sequence of human BDCA-2 on cells (Jurkat-hBDCA-2 cells; human pDCs; human PBMCs) (human) (Q8WTT0 whole entry): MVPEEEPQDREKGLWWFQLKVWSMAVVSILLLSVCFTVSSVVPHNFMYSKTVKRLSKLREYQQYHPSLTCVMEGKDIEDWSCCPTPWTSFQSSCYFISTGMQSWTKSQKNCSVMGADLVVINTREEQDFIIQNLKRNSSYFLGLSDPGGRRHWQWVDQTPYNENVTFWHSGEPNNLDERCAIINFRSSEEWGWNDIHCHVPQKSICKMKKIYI
substance,measurement,setting,value
Isotype control (antibody),MFI,[1],17.5
same,MFI,[2],67.3
